EC50 data for three molecules are collected here from patent US11242370B2, “Neuregulin-4 compounds and methods of use” (Eli Lilly and Company, priority 2019, dated 2022).

This experiment concerns the target T1, human HER2 and HER4 (Homo sapiens, UniProt Q15303).
T1 construct: expressed in transfected cells
The experiment in a line: Screening by human HER2-HER4 mediated ERK 1/2 phosphorylation in CHO-hHER2-hHER4 (clone 1H6) cells. Type of experiment: cell-based. The settings on record: Fc variants as 293F supernatants. As to the method: A cell based assay utilizing CHO-K1 cells overexpressing human or rat HER receptors is used to determine activity of NRG4 compounds. CHO-K1 cells (ATCC) are grown in DMEM-F12 3:1 with 5% FBS with 20 mM HEPES, 40 μg/mL L-Proline, lx antibiotics and were split 1:5 every 2-3 days with TripLE Express (Gibco). Cells are transfected with plasmid DNA encoding HER receptors in pairs (hHER2-3, hHER2-4, rHER2-3 and rHER2-4) with Fugene 6 (Promega) according to the manufacturer's instructions. […] Transfected cells are selected with Puromycin (12 ug/ml) and Hygromycin (1 mg/ml) for 3-4 weeks and clonal lines are obtained by limited dilution cloning into 96 well plates. Clonal lines are selected by appropriate gene expression of HER2, HER3 or HER4 by Taqman method. Lines with appropriate receptor expression are confirmed by NRG1 induced phospho-ERK 1/2 responses. Clones are grown up, harvested, aliquoted into cryovials and then frozen under liquid nitrogen for long-term storage.
A phospho-ERK1/2 activity assay is used to determine potencies of NRG4 compounds. The potency of Examples 1-8 and 10 as compared to WT human NRG1 and/or human NRG4 are analyzed in studies measuring stimulation of human HER2-HER4 mediated ERK 1/2 phosphorylation. This assay comprises a CHO-K1 stable line expressing human HER2 and HER4. CHO-hHER2-hHER4 (clone 1H6) cells are routinely cultured in DMEM: F12(3:1), 5% FBS, 40 μg/mL L-Proline, 10 μg/mL puromycin and 1 mg/mL hygromycin at 37° C., 5% CO2. Cells are washed twice with 1×PBS, dissociated with 0.05% trypsin/[…] EDTA and collected by centrifugation at 300×g for 10 m. Cells are re-suspended in maintenance media. 20,000 cells/well, in 30 μL, are seeded into 384 well Poly-D-Lysine cell culture plates (Greiner, Cat No. 781946). Plates are covered with a manufacturer's lid and moved to a 37° C. tissue culture incubator at 5% CO^2, 80%+ humidity and allowed to adhere. After 24 h, media are removed from the plates and replaced with 30 μL serum-free starvation media (Low glucose DMEM with 0.1% BSA) using a Biomek FX liquid handler. Plates are returned to the incubator for 24 h.
hFcNRG4 variants, transiently expressed as 293F supernatants, are prepared in starvation media in a clear 384W plate (Greiner, cat no. 781185) as a 4pt 1:8 serial dilution (dose range averaged between 250 pM to 140000 pM). Media are removed from the cell culture plates and the 30 uL/well prepared variants are stamped into the plates using a Biomek FX liquid handler. Plates are sealed with a foil seal and stimulated for 15 minutes at room temperature on an orbital shaker. Cells are then washed once with 50 uL cold PBS. 30 uL lysis buffer is added to the cells and oscillated for 10 m at RT on an orbital shaker.
Detection of phosphorylation of ERR 1/2 is performed with either an AlphaScreen SureFire phospho-ERK1/2 kit (T202/Y204) (Perkin Elmer, catalog no. TGRES) or an AlphaLISA® SureFire® Ultra™ p ERK1/2 assay kit together with the AlphaScreen Protein. A IgG Detection Kit (Protein-A) (PerkinElmer, catalogue no. 6760617). After lysis of the CHO-K1 cells. 4 μL lysate is transferred to a 384W Alpha Proxiplate (Perkin Elmer, cat no, 6008280) with a 384W Biomek FX. 4 uL positive and negative lysates (Perkin Elmer, TGRES-L) are added to available wells as controls. 5 uL/well acceptor mix (containing anti-phoso-Thr202/Tyr204 antibodies and Protein A conjugated acceptor beads) is added to the plate with a Forumlatrix Mantis. The plate is sealed, spun down for 1 min at 300×g and incubated for 2 hr at room temperature on an orbital shaker. 2 μL/well donor mix (containing strepavidin coated donor beads and biotinylated antibodies to a distal ERK1/2 epitope) is dispensed by Mantis. The plate is sealed, spun down for 1 min at 300×g and incubated for 2 hr at room temperature on an orbital shaker before reading on the Perkin Elmer Envision 2103 Multilabel Reader (HIS Alpha mode, excitation time: 40 ms, total measurement time: 130 ms). […]

Molecule “WT NRG1: wild type human NRG1; native peptide purchased from Reprokine in Tables 7-9; comparator in the screening assays of Tables 4 and 6” returned an EC50 (Table 6) of 0.319 nM. The molecule “WT NRG4: wild type human NRG4 (SEQ ID NO:1); parental hFcNRG4 in screening (Tables 4-6), native peptide from Reprokine in Tables 7-9 (DHEEPCGPSHKSFCLNGGLCYVIPTIPSPFCRCVENYTGARCEEVFL; listed as Homo sapiens)” returned an EC50 (Table 5, Examples average of two replicates ± standard deviation) of 2.53 nM and a concentration for a half-maximal effect (EC50) (Table 6) of 1.3 nM.

B1: Example 10: NRG4 D1G/V22Q/E44K, (GGGGS)3 linker, SEQ ID NO: 19, fused to IgG Fc dimer SEQ ID NO: 6 and 7 (protein)
chain 1: GGGGSGGGGSGGGGSGHEEPCGPSHKSFCLNGGLCYQIPTIPSPFCRCVENYTGARCEKVFL
chain 2: ECPPCPAPPVAGPSVFLFPPKPKDTLMISRTPEVTCVVVDVSHEDPEVQFNWYVDGVEVHNAKTKPREEQFNSTFRVVSVLTVVHQDWLNGKEYKCKVSNKGLPAPIEKTISKTKGQPREPQVYTLPPSREEMTKNQVSLWCLVKGFYPSDIAVEWESNGQPENNYKTTPPVLDSDGSFFLYSKLTVDKSRWQQGNVFSCSVMHEALHNHYTQKSLSLSPG
chain 3: ECPPCPAPPVAGPSVFLFPPKPKDTLMISRTPEVTCVVVDVSHEDPEVQFNWYVDGVEVHNAKTKPREEQFNSTFRVVSVLTVVHQDWLNGKEYKCKVSNKGLPAPIEKTISKTKGQPREPQVYTLPPSREEMTKNQVSLSCAVKGFYPSDIAVEWESNGQPENNYKTTPPVLDSDGSFFLVSKLTVDKSRWQQGNVFSCSVMHEALHNHYTQKSLSLSPG
B1 displayed an EC50 (Table 6) of 0.245 nM.
